This is an account of results in publication PMC12377726 (Proceedings of the National Academy of Sciences of the …, 2025).

The chains are these.
B1: G001_gp1_V08_VRC01c_2021-0055 (antibody, V domains shown)
VH: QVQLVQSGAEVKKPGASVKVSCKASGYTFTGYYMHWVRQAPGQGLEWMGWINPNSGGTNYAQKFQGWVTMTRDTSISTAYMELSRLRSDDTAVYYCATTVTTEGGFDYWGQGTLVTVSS
VL: QSALTQPPSASGSPGQSVTISCTGTSSDVGGYNYVSWYQQHPGKAPKLMIYEVSKRPSGVPDRFSGSKSGNTASLTVSGLQAEDEADYYCSSYEVFGTGTKVTVL
B2: G001_gp1_V08_VRC01c_2021-0056 (antibody, V domains shown)
VH: QVQLVQSGAEVKKPGASVTVSCKASGYTFTGYYMHWVRQAPGQGLEWMGWINPNSGGTNYAQKFQDWVTMTRDTSISTAYMELSRLRSDDTAVYYCATALGGSPGRIWSMDVWGQGTTVTVSS
VL: QSALTQPASVSGSPGQSITISCTGTSSDVGGSNYVSWYQQHPGKAPKLLIYDVSNRPSGVSSRFSGSKSGNTASLTISGLQAEDEADYYCSSYEVFGTGTKVTVL
B3: G001_gp1_V08_VRC01c_2021-0060 (antibody, V domains shown)
VH: QVQLVQSGAEAKKPGASVKVSCKASGYTFTGYYMHWVRQAPGQGLEWMGWINPNSGGTNYAQKFQDWVTMTRDTSISTAYMELNRLRSDDTAVYYCATTGGTAVTAAHRWYFDLWGRGTLVTVSS
VL: EIVLTQSPGTLSLSPGDRATLSCRASQSVSSSYLAWYQQKPGQAPRLLIYGAASRATGIPDRFSGSGSETDFTLTISRLEPEDSAVYYCQHYEGFGQGTRLEIK
B4: G001_gp1_V08_VRC01c_2021-0072 (antibody, V domains shown)
VH: QVQLVQSGAEVKKPGASVKISCKASGYTFSGYYMHWVRQAPGQGLEWMGWINPNSGGTNYAQKFQDWVTMTRDTSISTVYMELSRLRSDDTAVYYCAREWCSGGTCYSGPTFDFWGQGTLVTVSS
VL: EIVLTQSPGTLSLSPGERATLSCRASQSVSSNYLAWYQQKSGQAPRLLIYGASSRATGIPDRFSGSGSGTDFTLTISRLEPEDFAVYYCQHYETFGQGTKVEIK
B5: G001_gp1_V08_VRC01c_2021-0068 (antibody, V domains shown)
VH: QVQLVQSGAEVKKPGASVKVSCKASGYTFTGYYLHWVRQAPGQGLEWMGWINPNSGGTNYAQKFQGWVTMTRTTSISTAYLELSRLRSDDTAVYYCARSVYFDSSGFYYGYWGQGTLVTVSS
VL: DIQMTQSPSTLSASVGDRVTITCRASQSISSWLAWYQQKPGKAPKLLIYKASSLESGVPSRFSGSGSGTEFTLSISSLQPDDFATYYCQQYETFGQGTKVEIK
B6: G001_gp1_V08_VRC01c_2021-0075 (antibody, V domains shown)
VH: QVQLVQSGAEVKKPGASVKVSCKASGYTFTDYYIHWVRQAPGQGLEWMGWINPNSGGPNYAQKFQDWVTMTRDTSISTAHMELSSLRSDDTAVYYCARGVAHTGFEFGYWGQGTLVTVSS
VL: DIQMTQSPSTLSASVGDRVTITCRASQSISSWLAWYQQKPGKAPKLLIYKASTLESGVPSRFSGSGSGTEFTLTINSLQPDDFATYYCQQYETFGQGTKVEIK
B7: G001_gp1_V08_VRC01c_2021-0076 (antibody, V domains shown)
VH: QVQLVQSGAEVKKPGASVKVSCKASGYTFTDYYIHWVRQAPGQGLEWMGWINPNSGGTNYARKFQGRVTMTRATSISTVYMELSRLRSDDTAVYYCARGYCTVGWCFDLWGRDTLVTVSS
VL: DIQMTQSPSTLSASVGDRVTITCRASQSIGNWLAWYQQKPGRAPKLLIYQASSSESGVPSRFSGSGSGTEFTLTISSLQPDDFATYYCQQYETFGQGTKVEIK
B8: G001_gp1_V10_VRC01c_161 (antibody, V domains shown)
VH: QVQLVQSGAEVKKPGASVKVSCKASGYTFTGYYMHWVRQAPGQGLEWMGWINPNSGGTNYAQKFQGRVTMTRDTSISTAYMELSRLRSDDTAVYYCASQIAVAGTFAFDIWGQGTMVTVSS
VL: DIQMTQSPSTLSASVGDRVTITCRASQSISSWLAWYQQKPGKAPKLLIYKASSLESGVPSRFSGSGSGTEFTLTISSLQPDDFATYYCQQYYTFGQGTKLEIK
B9: G001_gp1_V08_VRC01c_2021-0069 (antibody, V domains shown)
VH: QVQLVQSGAEVKKPGASVKVSCKASGYTFTDYYIHWVRQAPGQGLEWMGWINPNSGGTNYAQKFQDWVTMTRDTSVGTAYMELSRLRSDDTAVYYCARGIWSSWHFDVWGRGTLVTVPS
VL: DIQVTQSPSTLSASVGDRVTITCRASQSISNSLAWYQQKPGKAPNLLIYKASILESGVPSRFSGSGSGTEFTLTISSLQPDDFATYYCQQYETFGQGTKVEVT
B10: G001_gp1_V08_VRC01c_2021-0073 (antibody, V domains shown)
VH: QVQLVQSGAEVKKPGASVKVSCKASGYTFTGYYMHWVRQAPGQGLEWMGWINPNSGGTNYAQKFQDWVTMTRDTSISTAYMELRRLRSDDTAVYYCARGMSAKWFDSWGQGTLVTVSS
VL: EIVLTQSPGTLSLSPGERATLSCRASQSFSNSYVAWYQQKPGQGPRLLIYGASSRATGIPDRFSGSGSGTDFTLTISRLEPEDFAVYYCQQYETFGQGIKLEIT
B11: G001_gp1_V10_VRC01c_159 (antibody, V domains shown)
VH: QVQLVQSGAEVKKPGASVKVSCKASGYTFADYYIHWVRQAPGQGLEWMGWINPNSGGTNYAQKFQGRVTMTRDTSITTAYMELSRLGSDDTAVYYCARAYYGDYGDYWGQGTLVTVSS
VL: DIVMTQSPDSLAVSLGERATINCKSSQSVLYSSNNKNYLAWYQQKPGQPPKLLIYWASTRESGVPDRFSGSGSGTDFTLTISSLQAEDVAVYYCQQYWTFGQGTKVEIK
B12: G001_gp1_V08_VRC01c_2021-0053 (antibody, V domains shown)
VH: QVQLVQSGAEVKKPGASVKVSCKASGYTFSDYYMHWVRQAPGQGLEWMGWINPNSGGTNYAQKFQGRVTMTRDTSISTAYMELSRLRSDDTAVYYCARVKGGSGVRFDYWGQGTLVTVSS
VL: DIQMTQSPSSLSASVGDRVTITCQASQDISNYLNWYQQKPGKAPKLLIYDASNLETGVTSRFSGSGSGTDFTFTISSLQPEDIATYYCQQYVTFGGGTKVEIK
B13: G001_gp1_V08_VRC01c_2021-0077 (antibody, V domains shown)
VH: QVQLVQSGAEVKKPGASVKVSCKASGYTFTDYYMHWVRQASGQGLEWMGWINPNSGGTNYAQEFQGRVTMTRDTSISTAYMELSRLRYDDTAVYYCASGGYSRTWSFNIWGLGTMVTVSS
VL: DIQMTQSPSSLSASVGDRVTITCQASQDISTYLNWYQQKPGKAPKLLIYDATNLETGVPSRFSGSGSGTDFTFTISSLQPEDIATYYCQQYETFGQGTRLEIK
B14: G001_gp1_V08_VRC01c_2021-0078 (antibody, V domains shown)
VH: QVQLVQSGAEVKKPGASVKVSCKASGYTFTGYYMHWVRQAPGQGLEWMGWINPNSGGTNFAQKFQGRVTMTRGTSITTTYMELSRLRSDDTAVYYCARVSQYRTGWYFGYWGQGTLVTVSS
VL: DIQMTQSPSSLSASVGDRVTITCQASQDISNYLNWYQQKPGKAPKLLIYDASNLETGVPSRFSGSGSGTDFTFTISSLQPEDIATYYCQQYEFFGGGTKVEIK
B15: G001_gp1_V08_VRC01c_2021-0074 (antibody, V domains shown)
VH: QVQLVQSGAEVKKPGASVKVSCKASGYTFTDYYMHWVRQAPGQGLEWMGWINPNSGGTNYAQKFQGWVTMTRDTSVSTAYMELRRLRSDDTAVYYCASGRGSSGWALDYWGQGTLVTVSS
VL: DIQMTQSPSSLSASVGDRVTITCQASQDISNYLNWYQQKPGKAPKLLIYDASILETGVPSRFSGSGSGTEFTFTISSLQPEDIATYYCQQYEAFGQGTKLEIK
B16: G001_gp1_V08_VRC01c_2021-0065 (antibody, V domains shown)
VH: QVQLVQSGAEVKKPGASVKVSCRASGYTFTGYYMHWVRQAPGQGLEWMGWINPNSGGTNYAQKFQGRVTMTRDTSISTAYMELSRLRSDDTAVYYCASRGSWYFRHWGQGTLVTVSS
VL: DIQMTQSPSSLSASVGDRVTITCQARHDISKYLNWYQQKPGKAPKLLIYDASDLETGVPSRFSGSGSGTDFTFTISSLQPEDIATYYCQQYDSFGGGTRVEIK
B17: G001_gp1_V08_VRC01c_2021-0082 (antibody, V domains shown)
VH: QVQLVQSGTEVKKPGASVKVSCKASGYTFTGYYIHWVRQAPGQGLEWMGWINPNSGGTNYAQKFQGWVTMTRDTSISTAYMELRRLTSVDTAVYYCARARSGYSSGWYWAYWGQGTLVTVSS
VL: DIQMTQSPSSLSASVGDRVTITCQASQDISNYLNWYQQKPGKAPKLLIYDASNLETGVPSRFSGSGSGTDFTFTISSLQPEDIATYYCQQYEFFGGGTKVEIK
B18: G001_gp1_V08_VRC01c_2021-0081 (antibody, V domains shown)
VH: QVQLVQSGAEVKKPGASVKVSCKASGYTFTDHYMHWVRQAPGQGLEWMGWINPNSGGTNYAQKFQGWVTMTRDTSVSTAYMEVRRLRSDDTAVYYCAIIHYRRSSWEFAYWGQGTLVTVSS
VL: DIQMTQSPSSLSASVGDRVTVTCQASQDISNSLNWYQQKPGKAPKLLIYGASNLETGVPSRFSGSGSGTDFTFTISSLQPEDIGTYYCQQYETFGQGTKLEIR
B19: G001_gp1_V10_VRC01c_160 (antibody, V domains shown)
VH: QVQLVQSGAEVKKPGASMKVSCEASGYTFTDYYMHWVRQAPGQGLEWMGWINPNSGGTNYAQKFQGRVTMTRDTSISTAYMELSRLRSDDTAVYYCATSIRDYLSGKVWYLGLWGRGTLVTVSS
VL: DIQMTQSPSSLSASVGDRVTITCQASQDISNYLNWYQQKPGKAPKLLIYDASNLETGVPSRFSGSGSGTDFTFTITSLQPEDIATYYCQQYETFGQGTKVEIK
B20: G001_gp1_V08_VRC01c_2021-0063 (antibody, V domains shown)
VH: QVHLVQSGAEVKKPGASVKVSCKASGYTFTGYYMHWVRQAPGQGLEWMGWINPNSGGTNYAQKFQGRVTVTRDTSISTAYMELSRLRSDDTAVYYCATQTHSSGWFVGNNWHFDLWGPGTLVTVSS
VL: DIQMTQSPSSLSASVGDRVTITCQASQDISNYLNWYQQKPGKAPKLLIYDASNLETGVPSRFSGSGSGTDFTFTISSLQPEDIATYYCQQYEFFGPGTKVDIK
B21: G001_gp1_V08_VRC01c_2021-0066 (antibody, V domains shown)
VH: QVQLVQSGAEVKKPGASVKVSCKASGYTFTGYYMHWVRQAPGQGLEWMGWINPNSGGTNYALKFQDWVTMTRDTSISTVYMELSRLRYDDTAVYYCARVNGDYGWNFDLWGRGTPVTVSS
VL: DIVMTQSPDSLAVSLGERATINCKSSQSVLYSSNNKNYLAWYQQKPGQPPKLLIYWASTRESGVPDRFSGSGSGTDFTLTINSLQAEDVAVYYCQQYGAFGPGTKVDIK
B22: G001_gp1_V08_VRC01c_2021-0062 (antibody, V domains shown)
VH: QVQLVQSGAEVKKPGASVKVSCKASGYTFTGYYIHWVRQAPGQGLEWMGWINPNSGGTNYAQEFQDWVTMTRDTSISTAYMELSRLSSDDTAVFYCARAKYYDAWSGYYFDFWGQGTLVTVSS
VL: DIQMTQAPSTLSASVGDRVTITCRASETTSSWVAWYQQKPGKAPKVLIYDASSLQSGVPSRFSGSGSGTEFTLTISSLQPDDFATYYCQQYNTFGGGTKVEIK
B23: G001_gp1_V08_VRC01c_2021-0057 (antibody, V domains shown)
VH: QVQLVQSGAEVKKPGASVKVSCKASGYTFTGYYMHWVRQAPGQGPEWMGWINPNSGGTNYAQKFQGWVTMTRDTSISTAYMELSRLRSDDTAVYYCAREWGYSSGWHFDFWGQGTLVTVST
VL: EIVLTQSPGSLSLSPGERATLSCRASQSGSSRYLAWYQQKPGQAPRLLIYGASNRATGIPNRFSGSGSGTDFVLTISRLEPEDFAVYYCQQYESFGPGTKVDIK
B24: G001_gp1_V08_VRC01c_2021-0059 (antibody, V domains shown)
VH: QAQLMQSGAEVKKPGASVKVSCKASGYTFTDYYMHWVRQAPGQGLEWMGWINPNSGGTNYAQKFQGWVTMTRDTSISTAFMELSRLRSDDTAVYFCATTNRYTSTWLFDYWGQGTLVTVSS
VL: EIVLTQSPGTLSLSPGERATLSCRASQSVSSSYLAWYQQKPGQAPRLLIYGASNRATGIPDRFSGSGSGTDFTLTISRLEPEDFAVYYCQQYESFGQGTKLEIK

The target in the assay is eOD-GT8 (engineered outer domain germline-targeting version 8), monomer (HIV-1 gp120 engineered outer domain, …).
Regarding B1, the binding result is “binds”.

As for B2, the binding result is “binds”.

With B3, the binding result was “binds”.

In the case of B4, the binding result is given as “binds”.

For B5, the binding result is “binds”.

In the case of B6, the binding result is reported as “binds”.

For the molecule B7, the binding result is recorded as “binds”.

On to B8, for which the binding result is “binds”.

As to B9, the binding result is “binds”.

As for B10, the binding result was “binds”.

On to B11, for which the binding result is “binds”.

Regarding B12, the binding result is “binds”.

On to B13, for which the binding result is “binds”.

As to B14, the binding result is “binds”.

As to B15, the binding result is “binds”.

In the case of B16, the binding result is “binds”.

In the case of B17, the binding result is reported as “binds”.

For the molecule B18, the binding result is “binds”.

In the case of B19, the binding result is reported as “binds”.

For B20, the binding result is listed as “binds”.

Regarding B21, the binding result is recorded as “binds”.

Turning to B22, the binding result is on record as “binds”.

Take B23: the binding result is on record as “binds”.

Take B24: the binding result is given as “binds”.
